The results in this text go back to US20150132305A1.

The target in assay [1] is T1, human Cadherin-11 on cells (Cad-11-expressing 431-D-11 cells; human fibroblast-like synoviocytes) (human) (UniProt P55287).
T1 sequence: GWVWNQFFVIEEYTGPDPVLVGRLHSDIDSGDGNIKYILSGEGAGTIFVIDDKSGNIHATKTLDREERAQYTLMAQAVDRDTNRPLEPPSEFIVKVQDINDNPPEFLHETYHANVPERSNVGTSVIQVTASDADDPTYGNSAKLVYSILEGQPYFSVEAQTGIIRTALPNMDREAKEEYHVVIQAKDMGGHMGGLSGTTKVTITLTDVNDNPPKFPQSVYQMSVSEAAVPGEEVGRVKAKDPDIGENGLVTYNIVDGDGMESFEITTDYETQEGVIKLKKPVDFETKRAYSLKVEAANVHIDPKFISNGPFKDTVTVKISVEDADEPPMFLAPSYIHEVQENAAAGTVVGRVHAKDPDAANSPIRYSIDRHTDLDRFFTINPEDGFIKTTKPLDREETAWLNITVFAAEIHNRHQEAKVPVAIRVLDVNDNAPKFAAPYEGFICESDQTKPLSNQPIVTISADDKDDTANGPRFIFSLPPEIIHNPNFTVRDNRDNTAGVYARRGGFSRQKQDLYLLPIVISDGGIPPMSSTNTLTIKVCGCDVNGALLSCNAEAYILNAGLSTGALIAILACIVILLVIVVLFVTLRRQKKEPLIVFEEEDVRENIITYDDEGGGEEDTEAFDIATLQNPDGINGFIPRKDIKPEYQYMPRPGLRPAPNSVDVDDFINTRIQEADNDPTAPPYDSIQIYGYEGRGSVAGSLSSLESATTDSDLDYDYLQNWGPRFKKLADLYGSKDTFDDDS
The assay can be described thus: cell-based or functional assay.

In assay [2] the target is T2, recombinant Cad-11 EC1 human IgG1 fusion protein (R&D Systems Cat. No. 1790-CA-050) (human) (UniProt P55287).
T2 sequence: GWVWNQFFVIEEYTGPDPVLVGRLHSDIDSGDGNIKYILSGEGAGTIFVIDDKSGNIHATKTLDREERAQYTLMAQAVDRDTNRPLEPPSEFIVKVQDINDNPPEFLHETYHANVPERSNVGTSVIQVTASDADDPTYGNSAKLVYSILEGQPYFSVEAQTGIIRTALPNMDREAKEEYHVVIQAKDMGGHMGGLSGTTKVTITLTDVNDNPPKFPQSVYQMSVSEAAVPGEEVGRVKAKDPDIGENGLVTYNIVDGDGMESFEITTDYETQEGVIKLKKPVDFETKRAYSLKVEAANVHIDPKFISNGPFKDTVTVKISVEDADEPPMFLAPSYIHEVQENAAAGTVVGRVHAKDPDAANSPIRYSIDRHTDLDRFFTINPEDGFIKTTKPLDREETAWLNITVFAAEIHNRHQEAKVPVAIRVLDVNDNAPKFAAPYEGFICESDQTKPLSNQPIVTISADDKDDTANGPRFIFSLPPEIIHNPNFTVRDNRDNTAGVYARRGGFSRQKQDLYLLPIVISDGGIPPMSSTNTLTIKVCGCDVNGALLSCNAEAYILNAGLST
The assay is described as follows: competition ELISA on coated recombinant human Cad-11 EC1 fusion protein against biotinylated SYN0012 (0.1 µg/ml).

For assay [3], the target named is T3, Cad-8 EC1 domain peptide (region overlapping G1-G33 of the Cad-11 EC1 domain) (UniProt P55286).
T3 sequence (peptide, conjugated to biotin, looked up): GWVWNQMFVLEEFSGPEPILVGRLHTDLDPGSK
The assay is described as follows: ELISA on biotin EC1 peptides. Background: An ELISA detects its analyte on a solid surface through an enzyme-linked reagent.

Assay [4] concerns the target Cad-11 EC1 domain peptide, first 33 amino acids (G1-G33), specificity ELISA of Example 5 (human). The assay is described as follows: ELISA on biotin EC1 peptides.
Assay [5] has as its target T4, Cad-11 37-mer peptide linked to BSA (encompasses the Cad-11 immunogen) (human).
T4 sequence (peptide, linked to BSA): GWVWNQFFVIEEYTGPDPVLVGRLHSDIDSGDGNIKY
The assay is described as follows: ELISA on peptide antigens, 50 ng/ml coat.

Assay [6] has the same target. The assay can be described thus: ELISA on BSA-coupled 37-mer peptides, 500 ng/ml coat.
Assay [7] shares this target. The assay is described as follows: ELISA, BSA-coupled 37-mer cadherin peptide coated at 500 ng/ml, A450.
For assay [8] the target is unchanged. The assay can be described thus: ELISA on peptide antigen, 50 ng/ml coat; Cad-11 antigen, 50 ng/ml coat.

B1: H1M1 anti-Cad-11 EC1 domain antibody (hybridoma H1M1, ATCC PTA-9699) (antibody, V domains shown)
VH: EVQLQQSGPELVKPGASVKISCKASGYSFTGYFMNWVKQSHGKSLEWIGRINPYTGDTFYNQKFKGKATLTVDKSSSTAHMELLSLSSEDSAVYYCGRLGSRYWYFDVWGAGTTVTVSS
VL: DVLMTQTPLSLPVSLGDQASISCRSSQSIIHSNGNTYLEWYLQKPGQSPKLLIYKVSNRFSGVPDRFWTFGGGTKLEIKTGSGSGTDFTLKISRVEAEDLGVYYCFQGSHVPWTFGGGTKLEIK
B1 displayed an inhibition of FLS invasion into MATRIGEL-coated membrane in assay [1] of 80%. The IC50 (read off the curve) in assay [2] worked out at 0.2 µg/mL. The same molecule yielded a fold lower binding than to Cad-11 in assay [3] of 1500 fold. The fold higher binding to Cad-11 than to any of the other cadherins tested in assay [4] is more than 100 fold.

B2: SDP051 humanized anti-Cad-11 EC1 antibody (Vκ1/VH5) (antibody, IgG4, V domains shown)
VH: EVQLVQSGAEVKKPGASVKVSCKASGYSFTGYFMNWVRQAPGQGLEWIGRINPYTGDTFYNQKFKGRVTITVDKSTSTAYMELSSLRSEDTAVYYCGRLGSRYWYFDVWGQGTTVTVSS
VL: DVLMTQTPLSSPVTLGQPASISCRSSQSIIHSNGNTYLEWYLQKPGQSPQLLIYKVSNRFSGVPDRFTGSGSGTDFTLKISRVEAEDVGVYYCFQGSHVPWTFGQGTKLEIK
B2: in assay [5], the binding differential, Cad-11 against Cad-8 was more than 200 fold. Also, the fold greater binding to the Cad-11 antigen than to the related antigens from the other cadherins in assay [6] is more than 100 fold. For the same molecule, the EC50 (read off the curve) – broadly, the midpoint of the concentration-response curve – in assay [7] stood at 0.04 µg/mL. The EC50 (commonly the concentration needed to bring the measured effect to its halfway point) in assay [8] is 0.0068 µg/mL.
